Substitutions are numbered along the chain they refer to.

Sequences and labels used below:
T1: recombinant human LAG-3-his protein (Novoprotein) (human, UniProt P18627 23-450)
T1 construct: Bought; also called huLAG-3; not shown: His tag
T1 sequence (looked up): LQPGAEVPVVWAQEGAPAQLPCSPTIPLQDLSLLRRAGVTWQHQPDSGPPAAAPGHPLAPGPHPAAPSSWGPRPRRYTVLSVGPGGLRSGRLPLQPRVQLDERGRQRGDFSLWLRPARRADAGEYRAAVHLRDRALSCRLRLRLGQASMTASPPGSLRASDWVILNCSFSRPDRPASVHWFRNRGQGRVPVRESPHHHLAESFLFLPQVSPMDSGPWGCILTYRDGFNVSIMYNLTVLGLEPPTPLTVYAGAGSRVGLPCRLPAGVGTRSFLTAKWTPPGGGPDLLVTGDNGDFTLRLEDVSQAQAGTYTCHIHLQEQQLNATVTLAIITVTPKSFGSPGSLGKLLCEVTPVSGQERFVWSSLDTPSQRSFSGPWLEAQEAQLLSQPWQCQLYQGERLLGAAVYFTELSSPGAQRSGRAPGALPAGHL

B1: HumAb719-11 (antibody, human IgG1, kappa, L234A L235A, V domains shown)
VH: EVQLLESGGGLVQPGGSLRLSCAASGFSFSSHLMSWVRQAPGKGLEWVAAISGGGADTYYPDSVKGRFTISRDNSKNTLYLQMNSLRAEDTAVYYCTRQILAFDSWGQGTTVTVSS
VL: DIQMNQSPSSLSASVGDRVTITCHASQNIYVWLNWYQQKPGKAPKLLIYKASNLHTGVPSRFSGSGSGTDFTFTISSLQPEDIATYYCQQGQSYPWTFGGGTKVEIKR
notes: humanized mAb719
B2: HumAb719-8 (antibody, human IgG1, kappa, L234A L235A, V domains shown)
VH: B1 VH with S28T, A49S, T97A, R98K
VL: B1 VL
notes: humanized mAb719
B3: HumAb719-12 (antibody, human IgG1, kappa, L234A L235A, V domains shown)
VH: B1 VH with G44R
VL: B1 VL
notes: humanized mAb719
B4: HumAb719-21 (antibody, human IgG1, kappa, L234A L235A, V domains shown)
VH: B1 VH with G44R, D62A, S105A
VL: B1 VL with A43I
notes: humanized mAb719; also called HuniAb719-21
B5: mAb719c (antibody, V domains shown)
VH: EVKLVESGGGLVKPGGSLKLSCTASGFSFSSHLMSWVRQTPEKRLEWVAAISGGGADTYYPDSVKGRFTISRDNAKNTLYLQMRSLRSEDTALYYCTRQILAFDSWGQGTTLTVSS
VL: DIQMNQSPSSLSVSLGDTITITCHASQNIYVWLNWYQQKPGNIPKLLIYKASNLHTGVPSRFSGGGSGTGFTLTISSLQPEDIATYYCQQGQSYPWTFGGGTKLEIK
B6: HumAb713-3 (antibody, human IgG1, kappa, L234A L235A, V domains shown)
VH: EVQLVESGGGLVQPGGSLRLSCAASGFTSSDYGMHWVRQAPGKGLEWVSYISSGSYTIYYADTVKGRFTISRDNAKNSLYLQMNSLRDEDTAVYYCAKRGGSSHVNVMDYWGQGTTVTVSS
VL: DIQMTQSPSSLSASVGDRVTITCKASDHINNWLAWYQQKPGKAPKLLIYGATSLETGVPSRFSGSGSGTDFTFTISSLQPEDIATYYCQQYWSPPYTFGGGTKVEIKR
notes: humanized mAb713; also called HurnAb713-3
B7: HumAb713-1 (antibody, human IgG1, kappa, L234A L235A, V domains shown)
VH: B6 VH with S29F, K98R
VL: B6 VL
notes: humanized mAb713
B8: HumAb713-11 (antibody, human IgG1, kappa, L234A L235A, V domains shown)
VH: B6 VH
VL: B6 VL with Y49S, F71Y
notes: humanized mAb713
B9: mAb713c (antibody, V domains shown)
VH: EVKLVESGGGLVKPGGSLELSCAASGFTSSDYGMHWVRQAPEKGLEWVAYISSGSYTIYYADTVKGRFTISRDNAKNTLFLQMTSLRSEDTAMYYCAKRGGSSHVNVMDYWGQGTSVTVSS
VL: DIQMTQSSSYLSVSLGGRVTITCKASDHINNWLAWYQQKPGNAPRLLISGATSLETGVPSRFSGSGSGKDYTLSITSLQTEDVATYYCQQYWSPPYTFGGGTKLEIK
notes: also called mAb73c
B10: HumAb747-46 (antibody, human IgG1, V domains shown)
VH: EVQLVQSGAEVKKPGATVKLSCTASDFNIKDDYMHWVKQAPGKGLEWIGWIVPENGNTEYASKFQGRATITADTSTNTAYLELSSLRSEDTAVYYCTVYGDYWGQGTTVTVSS
VL: DIQMTQSPSSLSASVGDRVTITCRASQEISGYLSWLQQKPGKAIKSLIYAASTLDSGVPSRFSGSRSGTDFTLTISSLQPEDFATYYCLQYASYPLTFGQGTKLEIK
notes: humanized mAb747; human IgG1/kappa constant domains
B11: HumAb747-47 (antibody, human IgG1, V domains shown)
VH: B10 VH with L20I, T23K, A24V, K38Q, A68V, N77D
VL: B10 VL with S46R
notes: as for B10
B12: HumAb747-48 (antibody, human IgG1, V domains shown)
VH: B10 VH with T23K, K38Q, A68V, N77D
VL: B10 VL with S46R
notes: as for B10
B13: HumAb747-43 (antibody, human IgG1, V domains shown)
VH: B10 VH with L20I, T23K, A24V, K38Q, A68V, N77D
VL: B10 VL
notes: as for B10
B14: HumAb747-45 (antibody, human IgG1, V domains shown)
VH: B10 VH with K38Q, A68V, N77D
VL: B10 VL
notes: as for B10
B15: HumAb747-44 (antibody, human IgG1, V domains shown)
VH: B10 VH with T23K, K38Q, A68V, N77D
VL: B10 VL
notes: as for B10
B16: HumAb747-54 (antibody, human IgG1, V domains shown)
VH: B10 VH
VL: B10 VL with K42G, S46R, T69S, F71Y, T85D, I106L
notes: as for B10
B17: HumAb747-49 (antibody, human IgG1, V domains shown)
VH: B10 VH with K38Q, A68V, N77D
VL: B10 VL with S46R
notes: as for B10
B18: HumAb747-50 (antibody, human IgG1, V domains shown)
VH: B10 VH
VL: B10 VL with S46R
notes: as for B10
B19: HumAb747-53 (antibody, human IgG1, V domains shown)
VH: B10 VH with K38Q, A68V, N77D
VL: B10 VL with K42G, S46R, T69S, F71Y, T85D, I106L
notes: as for B10
B20: HumAb747-51 (antibody, human IgG1, V domains shown)
VH: B10 VH with L20I, T23K, A24V, K38Q, A68V, N77D
VL: B10 VL with K42G, S46R, T69S, F71Y, T85D, I106L
notes: as for B10
B21: HumAb747-52 (antibody, human IgG1, V domains shown)
VH: B10 VH with T23K, K38Q, A68V, N77D
VL: B10 VL with K42G, S46R, T69S, F71Y, T85D, I106L
notes: as for B10

T3 sequence (Q15116 25-288): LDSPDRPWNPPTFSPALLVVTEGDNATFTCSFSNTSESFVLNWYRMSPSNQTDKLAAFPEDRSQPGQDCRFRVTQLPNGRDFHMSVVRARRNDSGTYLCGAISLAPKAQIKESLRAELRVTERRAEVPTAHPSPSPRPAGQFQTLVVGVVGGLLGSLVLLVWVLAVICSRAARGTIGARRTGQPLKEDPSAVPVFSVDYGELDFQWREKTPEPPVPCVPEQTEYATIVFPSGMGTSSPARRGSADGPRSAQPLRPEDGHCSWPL

The target of the first assay is T2, human PD-1 ECD/Fc fusion protein (human).
T2 construct: also called huPD-1/Fc; HuPD-1 ECD/Fc
T2 sequence (chain, as listed by the source limits assumed): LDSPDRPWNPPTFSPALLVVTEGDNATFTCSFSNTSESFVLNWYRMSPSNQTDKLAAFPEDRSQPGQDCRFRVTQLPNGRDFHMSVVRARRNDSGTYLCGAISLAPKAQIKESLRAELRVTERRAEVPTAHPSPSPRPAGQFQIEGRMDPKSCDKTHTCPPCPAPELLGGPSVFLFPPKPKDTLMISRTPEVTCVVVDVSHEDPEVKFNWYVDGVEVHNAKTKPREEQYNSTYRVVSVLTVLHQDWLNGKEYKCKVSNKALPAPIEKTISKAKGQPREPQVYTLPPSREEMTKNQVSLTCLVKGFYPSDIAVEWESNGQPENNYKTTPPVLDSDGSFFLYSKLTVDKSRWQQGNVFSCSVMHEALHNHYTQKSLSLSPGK
Briefly: BLI Octet, immobilized huPD-1-Fc, Ab analyte. The source says: All 21 humanized antibodies and the chimeric antibody (mAb719c) were characterized by binding ELISA and affinity determination using Octet® RED96 biolayer interferometry system (Pall FortéBio LLG), using a biosensor having immobilized human PD-Fc as the antibody target. Rate constants were derived by making kinetic binding measurements at five different concentrations of antibody.
In general terms: In BLI a coated tip is dipped into the sample, and binding shifts an interference pattern.
Usually Kd stands for the concentration at which binding is half-saturated. A high value points to a looser complex. A word on the koff: it is a measure of how fast the partners let go of each other. The kon is the rate constant with which the complex forms. B1 came in with a Kd of 3.82 nM, a koff of 0.000227 s⁻¹ and a kon of 59400 M⁻¹ s⁻¹.
B2 showed a Kd of 0.46 nM, a koff of 4.9e-05 s⁻¹ and an association rate constant (kon) of 107000 M⁻¹ s⁻¹.
Turning to B3, binding was put at a Kd of 0.844 nM, the koff worked out at 5.81e-05 s⁻¹ and the kon came to 68800 M⁻¹ s⁻¹.
With B4, the Kd was determined as 0.601 nM, the koff was 6.26e-05 s⁻¹ and the kon was found to be 104000 M⁻¹ s⁻¹.
Consider B5, for which the Kd is below 0.103 nM, the dissociation rate constant (koff) was below 1e-05 s⁻¹ and the kon is 97400 M⁻¹ s⁻¹.

Another assay addresses T3, human PD-1 expressed on cells (human, UniProt Q15116 25-288).
T3 construct: whole, on cells; also called CHO-K1/huPD-1; CHO-K1-hPD-1 cells
The assay is described as follows: cell RBA FACS; competitor PD-L2/Fc.
The term IC50 denotes the point on the concentration scale where inhibition reaches its midpoint. Low values mean greater potency in that assay, high ones weaker potency in that assay. Turning to B6, the half-maximal inhibitory concentration (IC50) is 1.24 nM.
The molecule B7 came in with an IC50 of 1.2 nM.
Regarding B8, the IC50 was determined as 0.97 nM. This IC50 and that of the molecule before are within 1.5-fold of each other.
Regarding B9, the IC50 turned out to be 2.2 nM. This IC50 lies about 2.3-fold higher than the previous one.

In a further assay the target is T4, human PD-1-His protein (human, UniProt Q15116 25-167, limits assumed).
T4 construct: also called huPD-1; not shown: His tag
T4 sequence (Q15116 25-167 limits assumed): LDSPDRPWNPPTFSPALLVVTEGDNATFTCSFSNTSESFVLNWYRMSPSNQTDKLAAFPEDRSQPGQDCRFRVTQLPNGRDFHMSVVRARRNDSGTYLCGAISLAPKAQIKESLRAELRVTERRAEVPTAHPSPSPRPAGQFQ
Briefly: SPR Biacore. (Surface plasmon resonance follows binding to a sensor surface in real time, without labels.)
The molecule B6 displayed a Kd of 2.46 nM, a koff of 0.000208 s⁻¹ and a kon of 84500 M⁻¹ s⁻¹.
The corresponding values for B7 are 11.1 nM, 0.001 s⁻¹ and 90100 M⁻¹ s⁻¹.
B8: the dissociation constant (Kd) amounted to 2.37 nM, the off-rate (koff) turned out to be 0.000378 s⁻¹ and the kon came out at 159000 M⁻¹ s⁻¹.
Take B9: binding was characterised by a dissociation constant (Kd) of 1.3 nM, the koff worked out at 0.000284 s⁻¹ and the kon worked out at 218000 M⁻¹ s⁻¹.

The next assay has as its target T1, recombinant human LAG-3-his protein …. The assay is described as follows: BLI Octet, Ab on AHC sensor, huLAG-3-his; test group 1. Here is the method: (§1) All 18 humanized antibodies (Table 34) and a chimeric antibody having the parental murine VH and VL domains (mAb747c) were ranked by dissociation rate constant (koff). Briefly, antibodies were characterized for affinities and binding kinetics by Octet®RED96 biolayer interferometry (Pall ForteBio LLC). Antibodies were captured by Anti-hIgG Fc Capture (AHC) Biosensors (Pall) at a concentration of 100 nM for 30 seconds. Sensors were then dipped into running buffer (1× pH7.2 PBS, 0.05% Tween 20, 0.1% BSA) for 60 seconds to check baseline. Binding was measured by dipping sensors into a single concentration of recombinant human LAG-3-his protein (Novoprotein). Dissociation was followed by dipping sensors into running buffer for 1200 seconds. The association and dissociation curves were fitted to a 1:1 Langmuir binding model using FortéBio Data Analysis software (Pall). In each test group, the off-rates of antibodies were able to be compared with that of mAb747c. The off-rate ratios were calculated by the off-rate of antibody to that of mAb747c of its group and were compared all together. The lower the ratio was, the higher was the affinity of the antibody.
Consider B10, for which the koff amounted to 0.0109 s⁻¹ and the “off-rate ratio to that of mAb747c” value was 801%.
With B11, the koff was 0.0144 s⁻¹ and the “off-rate ratio to that of mAb747c” value worked out at 1060%.
As for B12, the off-rate (koff) was 0.00803 s⁻¹ and the “off-rate ratio to that of mAb747c” value turned out to be 592%.
On to B13, for which the koff was 0.00925 s⁻¹ and the “off-rate ratio to that of mAb747c” value was 682%.
With B14, the koff came to 0.0108 s⁻¹ and the “off-rate ratio to that of mAb747c” value was 797%.
Consider B15, for which the koff was 0.011 s⁻¹ and the “off-rate ratio to that of mAb747c” value was determined as 809%.

For the next assay the target is unchanged. The assay is described as follows: BLI Octet, Ab on AHC sensor, huLAG-3-his; test group 2. Here is the method: as §1
For the molecule B16, the dissociation rate constant (koff) stood at 0.00423 s⁻¹ and the “off-rate ratio to that of mAb747c” value turned out to be 314%.
On the same counts, the results for B17 are 0.00773 s⁻¹ and 575%.
Consider B18, for which the dissociation rate constant (koff) was 0.00719 s⁻¹ and the “off-rate ratio to that of mAb747c” value was determined as 534%.
The corresponding values for B19 are 0.0043 s⁻¹ and 319%.
For B20, the koff worked out at 0.0119 s⁻¹ and the “off-rate ratio to that of mAb747c” value was found to be 888%.
As to B21, the koff came to 0.00436 s⁻¹ and the “off-rate ratio to that of mAb747c” value was 324%.

Another assay addresses T3, human PD-1 expressed on cells. The assay is described as follows: cell RBA FACS; competitor PD-L1/Fc.
On to B6, for which the concentration for half-maximal inhibition (IC50) is 0.77 nM.
The molecule B7 yielded a half-maximal inhibitory concentration (IC50) of 0.5 nM.
For B8, the half-inhibitory concentration (IC50) worked out at 0.51 nM.
Same read-out and setting: to B9 belongs 0.91 nM.
